From the supplement of paper PMC10266784 come the findings set out here.

The chains are these.
B1: library; numbered along this chain (parent)
chain: MAAAAAAAAEQQSSNGPVKKSMREKAVERRSVNKEHNSNFKAGYIPIDEDRLHKTGLRGRKGNLAICVIILLFILAVINLIITLVIWAVIRIGPNGCDSMEFHESGLLRFKQVSDMGVIHPLYKSTVGGRRNENLVITGNNQPIVFQQGTTKLSVENNKTSITSDIGMQFFDPRTQNILFSTDYETHEFHLPSGVKSLNVQKASTERITSNATSDLNIKVDGRAIVRGNEGVFIMGKTIEFHMGGNMELKAENSIILNGSVMVSTTRLPSSSSGDQLGSGDWVRYKLCMCADGTLFKVQVTSQNMGCQISDNPCGNTH

The variants in this data set derive from B1. Briefly: SGCB cell-surface expression functional score (HA stain, bin4 vs bin1, normalised to synonymous) (log10 ratio); higher = more cell-surface SGCB (functional). The protocol: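 Deep mutational scan of full-length human SGCB (YFP-SGCB-HA, NNN codon sublibraries A-F) delivered by lentivirus at low MOI into ADG-HEK293 cells stably expressing SGCA, SGCD and SGCG. YFP-positive cells were stained for surface HA on unpermeabilized cells and FACS-sorted into bins. The functional score is log10(frequency in high bin 4 / frequency in low bin 1), normalised per chunk so that synonymous variants have mean 0 and SD 0.5. Scores are the median over codons and over duplicate biological replicates; scores below -0.5 are called non-functional. Scale: negative means deleterious.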
Turning to MAAAAAAAAEQQSSNGPVKKSMREKAVERRSVNKENNSNFKAGYIPIDEDRLHKTGLRGRKGNLAICVIILLFILAVINLIITLVIWAVIRIGPNGCDSMEFHESGLLRFKQVSDMGVIHPLYKSTVGGRRNENLVITGNNQPIVFQQGTTKLSVENNKTSITSDIGMQFFDPRTQNILFSTDYETHEFHLPSGVKSLNVQKASTERITSNATSDLNIKVDGRAIVRGNEGVFIMGKTIEFHMGGNMELKAENSIILNGSVMVSTTRLPSSSSGDQLGSGDWVRYKLCMCADGTLFKVQVTSQNMGCQISDNPCGNTH [H36N], the “SGCB cell-surface expression functional score (log10)” value worked out at 0.25.

As to MAAAAAAAAEQQSSNGPVKKSMREKAVERRSVNKEENSNFKAGYIPIDEDRLHKTGLRGRKGNLAICVIILLFILAVINLIITLVIWAVIRIGPNGCDSMEFHESGLLRFKQVSDMGVIHPLYKSTVGGRRNENLVITGNNQPIVFQQGTTKLSVENNKTSITSDIGMQFFDPRTQNILFSTDYETHEFHLPSGVKSLNVQKASTERITSNATSDLNIKVDGRAIVRGNEGVFIMGKTIEFHMGGNMELKAENSIILNGSVMVSTTRLPSSSSGDQLGSGDWVRYKLCMCADGTLFKVQVTSQNMGCQISDNPCGNTH [H36E], the “SGCB cell-surface expression functional score (log10)” value was 0.05.

In the case of MAAAAAAAAEQQSSNGPVKKSMREKAVERRSVNKESNSNFKAGYIPIDEDRLHKTGLRGRKGNLAICVIILLFILAVINLIITLVIWAVIRIGPNGCDSMEFHESGLLRFKQVSDMGVIHPLYKSTVGGRRNENLVITGNNQPIVFQQGTTKLSVENNKTSITSDIGMQFFDPRTQNILFSTDYETHEFHLPSGVKSLNVQKASTERITSNATSDLNIKVDGRAIVRGNEGVFIMGKTIEFHMGGNMELKAENSIILNGSVMVSTTRLPSSSSGDQLGSGDWVRYKLCMCADGTLFKVQVTSQNMGCQISDNPCGNTH [H36S], the “SGCB cell-surface expression functional score (log10)” value was 0.21.

As for MAAAAAAAAEQQSSNGPVKKSMREKAVERRSVNKEMNSNFKAGYIPIDEDRLHKTGLRGRKGNLAICVIILLFILAVINLIITLVIWAVIRIGPNGCDSMEFHESGLLRFKQVSDMGVIHPLYKSTVGGRRNENLVITGNNQPIVFQQGTTKLSVENNKTSITSDIGMQFFDPRTQNILFSTDYETHEFHLPSGVKSLNVQKASTERITSNATSDLNIKVDGRAIVRGNEGVFIMGKTIEFHMGGNMELKAENSIILNGSVMVSTTRLPSSSSGDQLGSGDWVRYKLCMCADGTLFKVQVTSQNMGCQISDNPCGNTH [H36M], the “SGCB cell-surface expression functional score (log10)” value was -0.06.

As to MAAAAAAAAEQQSSNGPVKKSMREKAVERRSVNKEYNSNFKAGYIPIDEDRLHKTGLRGRKGNLAICVIILLFILAVINLIITLVIWAVIRIGPNGCDSMEFHESGLLRFKQVSDMGVIHPLYKSTVGGRRNENLVITGNNQPIVFQQGTTKLSVENNKTSITSDIGMQFFDPRTQNILFSTDYETHEFHLPSGVKSLNVQKASTERITSNATSDLNIKVDGRAIVRGNEGVFIMGKTIEFHMGGNMELKAENSIILNGSVMVSTTRLPSSSSGDQLGSGDWVRYKLCMCADGTLFKVQVTSQNMGCQISDNPCGNTH [H36Y], the “SGCB cell-surface expression functional score (log10)” value was 0.15.

In the case of MAAAAAAAAEQQSSNGPVKKSMREKAVERRSVNKEVNSNFKAGYIPIDEDRLHKTGLRGRKGNLAICVIILLFILAVINLIITLVIWAVIRIGPNGCDSMEFHESGLLRFKQVSDMGVIHPLYKSTVGGRRNENLVITGNNQPIVFQQGTTKLSVENNKTSITSDIGMQFFDPRTQNILFSTDYETHEFHLPSGVKSLNVQKASTERITSNATSDLNIKVDGRAIVRGNEGVFIMGKTIEFHMGGNMELKAENSIILNGSVMVSTTRLPSSSSGDQLGSGDWVRYKLCMCADGTLFKVQVTSQNMGCQISDNPCGNTH [H36V], the “SGCB cell-surface expression functional score (log10)” value is 0.28.

Regarding MAAAAAAAAEQQSSNGPVKKSMREKAVERRSVNKEINSNFKAGYIPIDEDRLHKTGLRGRKGNLAICVIILLFILAVINLIITLVIWAVIRIGPNGCDSMEFHESGLLRFKQVSDMGVIHPLYKSTVGGRRNENLVITGNNQPIVFQQGTTKLSVENNKTSITSDIGMQFFDPRTQNILFSTDYETHEFHLPSGVKSLNVQKASTERITSNATSDLNIKVDGRAIVRGNEGVFIMGKTIEFHMGGNMELKAENSIILNGSVMVSTTRLPSSSSGDQLGSGDWVRYKLCMCADGTLFKVQVTSQNMGCQISDNPCGNTH [H36I], the “SGCB cell-surface expression functional score (log10)” value came out at 0.09.

Regarding MAAAAAAAAEQQSSNGPVKKSMREKAVERRSVNKEHCSNFKAGYIPIDEDRLHKTGLRGRKGNLAICVIILLFILAVINLIITLVIWAVIRIGPNGCDSMEFHESGLLRFKQVSDMGVIHPLYKSTVGGRRNENLVITGNNQPIVFQQGTTKLSVENNKTSITSDIGMQFFDPRTQNILFSTDYETHEFHLPSGVKSLNVQKASTERITSNATSDLNIKVDGRAIVRGNEGVFIMGKTIEFHMGGNMELKAENSIILNGSVMVSTTRLPSSSSGDQLGSGDWVRYKLCMCADGTLFKVQVTSQNMGCQISDNPCGNTH [N37C], the “SGCB cell-surface expression functional score (log10)” value stood at 0.35.

For MAAAAAAAAEQQSSNGPVKKSMREKAVERRSVNKEHDSNFKAGYIPIDEDRLHKTGLRGRKGNLAICVIILLFILAVINLIITLVIWAVIRIGPNGCDSMEFHESGLLRFKQVSDMGVIHPLYKSTVGGRRNENLVITGNNQPIVFQQGTTKLSVENNKTSITSDIGMQFFDPRTQNILFSTDYETHEFHLPSGVKSLNVQKASTERITSNATSDLNIKVDGRAIVRGNEGVFIMGKTIEFHMGGNMELKAENSIILNGSVMVSTTRLPSSSSGDQLGSGDWVRYKLCMCADGTLFKVQVTSQNMGCQISDNPCGNTH [N37D], the “SGCB cell-surface expression functional score (log10)” value is -0.35.

Take MAAAAAAAAEQQSSNGPVKKSMREKAVERRSVNKEHASNFKAGYIPIDEDRLHKTGLRGRKGNLAICVIILLFILAVINLIITLVIWAVIRIGPNGCDSMEFHESGLLRFKQVSDMGVIHPLYKSTVGGRRNENLVITGNNQPIVFQQGTTKLSVENNKTSITSDIGMQFFDPRTQNILFSTDYETHEFHLPSGVKSLNVQKASTERITSNATSDLNIKVDGRAIVRGNEGVFIMGKTIEFHMGGNMELKAENSIILNGSVMVSTTRLPSSSSGDQLGSGDWVRYKLCMCADGTLFKVQVTSQNMGCQISDNPCGNTH [N37A]: the “SGCB cell-surface expression functional score (log10)” value amounted to 0.08.
